Test results published in IntAct's records for PubMed 19008859.

B1: Myocardin-related transcription factor A (Mus musculus), Q8K4J6 (parent)
chain: MTLLEPEMLMMAVQSVLQLKLQQRRTREELVSQGIMPPLKSPAAFHEQRRSLERARTEDYLKRKIRSRPERAELVRMHILEETSAEPSLQAKQLKLKRARLADDLNEKIAQRPGPMELVEKNILPVESSLKEAIIVGQVNYPKVADSSSFDEDSSDALSPEQPASHESQGSVPSPLESRVSDPLPSATSISPTQVLSQLPMAPDPGETLFLAEQPPLPPAPLLPPSLANGSIVPTAKPAPTLIKQSQPKSASEKSQRSKKAKELKPKVKKLKYHQYIPPDQKQDKGAPAMDSSYAKILQQQQLFLQLQILNQQQQQQQQQHYNYQAILPAPPKPSAETPGSSAPTPSRSLSTSSSPSSGTPGPSGLARQSSTALAAKPGALPANLDDMKVAELKQELKLRSLPVSGTKTELIERLRAYQDQVSPAPGAPKAPATTSVLSKAGEVVVAFPAALLSTGSALVTAGLAPAEMVVATVTSNGMVKFGSTGSTPPVSPTPSERSLLSTGDENSTPGDAFGEMVTSPLTQLTLQASPLQIVKEEGARAASCCLSPGARAELEGLDKDQMLQEKDKQIEELTRMLQQKQQLVELLRLQLEQQKRAQQPAPASSPVKRESGFSSCQLSCQPQGSAHAFGSGLVVPTTNHGDTQAPAPESPPVVVKQEAGPPEPDLAPSSQLLLGSQGTSFLKRVSPPTLVTDSTGTHLILTVTNKSADGPGLPAGSPQQPLSQPGSPAPGPPAQMDLEHPPQPPFATPTSLLKKEPPGYEETVTQQPKQQENGSSSQHMDDLFDILIQSGEISADFKEPPSLPGKEKSPPAAAAYGPPLTPQPSPLSELPQAAPPPGSPTLPGRLEDFLESSTGLPLLTSGHEGPEPLSLIDDLHSQMLSSSAILDHPPSPMDTSELHFAPEPSSGMGLDLAVGHLDSMDWLELSSGGPVLSLAPLSTAAPSLFSMDFLDGHDLQLHWDSCL

Variants of: B1
Conditions: with acts_rabit ACTA1, P68135

Row | Variant | effect of a mutation on the interaction
1 | R24D;R25D | disrupting interaction

Variants of: B1
Conditions: with acts_rabit ACTA1, P68135
Remark: another data set of the same source

Row | Variant | effect of a mutation on the interaction
2 | R68A | disrupting interaction

Variants of: B1
Conditions: with acts_rabit ACTA1, P68135
Remark: another data set of the same source

Row | Variant | effect of a mutation on the interaction
3 | L74A;I79A;L80A | disrupting interaction

Variants of: B1
Conditions: with acts_rabit ACTA1, P68135
Remark: another data set of the same source

Row | Variant | effect of a mutation on the interaction
4 | L105A;I109A | disrupting interaction

Variants of: B1
Conditions: with acts_rabit ACTA1, P68135
Remark: another data set of the same source

Row | Variant | effect of a mutation on the interaction
5 | G114E;P115R | increasing interaction

Variants of: B1
Conditions: with acts_rabit ACTA1, P68135
Remark: another data set of the same source

Row | Variant | effect of a mutation on the interaction
6 | G114E;P115Q;L118A;I123A;L124A | disrupting interaction

Variants of: B1
Conditions: with acts_rabit ACTA1, P68135
Remark: another data set of the same source

Row | Variant | effect of a mutation on the interaction
7 | L61A;I65A | disrupting interaction

Variants of: B1
Conditions: with acts_rabit ACTA1, P68135
Remark: another data set of the same source

Row | Variant | effect of a mutation on the interaction
8 | R112A | disrupting interaction

Variants of: B1
Conditions: with acts_rabit ACTA1, P68135
Remark: another data set of the same source

Row | Variant | effect of a mutation on the interaction
9 | R24A | disrupting interaction

Variants of: B1
Conditions: with acts_rabit ACTA1, P68135
Remark: another data set of the same source

Row | Variant | effect of a mutation on the interaction
10 | P69R | decreasing interaction

Variants of: B1
Conditions: with acts_rabit ACTA1, P68135
Remark: another data set of the same source

Row | Variant | effect of a mutation on the interaction
11 | L118A;I123A;L124A | disrupting interaction
